Measurements published in patent publication US20250041377A1, “PHARMACEUTICAL USE” (ENLITISA (SHANGHAI) PHARMACEUTICAL CO., LTD., priority 2018, published 2025).

How the values were obtained:
[1] = system: Hyp, VEGF and TGF-β1 in wound tissue; experiment: Acute wound model, ELISA of wound tissue; format: in vivo, C57BL/6 mice; details: for wound Hyp content (Mean): indicator of collagen regeneration; for TGF-β1 content (Mean): wound tissue
From the text: (§1) The model group was given same amount of normal saline. There were 8 mice in each group.
Samples were taken at Day 4 and Day 7 post-wound infliction. The mice were sacrificed and the wound tissue taken by the same biopsy punch used to create the wound. Then 5 mm of tissue was cut off from the center of the sample and was preserved in 10% neutral buffered formalin (Nanchang Rain Dew Experimental Equipment Co., Ltd., Nanchang, Hubei Province, China), and analyzed by histological embedding (HE) in paraffin wax, sectioning and staining.
The rest of the samples were stored at −80° C. for further analysis. Tissue was cut into small pieces and liquid nitrogen was added to increase brittleness. 9 mL of normal saline was added to 1 g of tissue, which was then ground using a Tissuelyser (Shanghai Jingxin Industrial Development Co., Ltd., Shanghai, China) at 55 Hz for 60 seconds, followed by centrifuging at 8000 rpm for 10 minutes at 4° C.
The supernatant was collected, and the extracted protein was used for ELISA analysis using standard ELISA test kits and an ELISA reader (SH-1000 Hitachi, Japan). Vascular endothelial growth factor (VEGF), transforming growth factor beta 1 (TGF-β1) and hydroxyproline (Hyp) were assayed. The ELISA kits were purchased from Beijing 4A Biotech Co., Ltd. (Beijing, China).

[2] = system: full thickness skin wound on the back; experiment: Acute wound model, remaining wound area; format: in vivo, C57BL/6 mice; details: ± SD
Procedure: 6-8 weeks old male C57BL/6 mice were supplied by Changzhou Cvens Experimental Animal Co. Ltd (Changzhou, Jiangsu Province, China). Prior to any experiments being conducted, mice were housed under standardized conditions (at a constant temperature of 22±2° C., with alternating 12 hour periods of light and darkness), and were fed on a standard mouse diet with water, for about a week.
General anesthesia was induced using intraperitoneal 3% chloral hydrate (1 mL/10 g of body weight). The hair on the back was shaved by a baby hair shaver and depilated with cream. The skin area was wiped and sterilized with 75% alcohol twice.
An EMS skin biopsy punch (Electron Microscopy Sciences, P.O. Box 550, 1560 Industry Road, Hatfield, PA, USA) with a 18 mm diameter was used to make a round wound on the back. The full thickness of skin was removed and the depth of the wound reached the fascia. Wounds were left open without a suture.
as §1
Recombinant Human Epidermal Growth Factor (rhEGF, Shanghai Haohai Biological Technology Co. Ltd, 23/F, Shanghai, China) was purchased and prepared according to the manufacturer's instructions. The lyophilized rhEGF powder (100000 IU/vial) was dissolved in 20 mL of normal saline to make a solution with a concentration of 5000 IU/mL. The working dose of rhEGF for this experiment was 1285 IU/wound.
For this experiment, Compound A was also obtained from GL Biochem (Shanghai) Ltd. The peptide powders were stored at −20° C. and dissolved in saline at concentrations of 61.8 μg/mL (Compound A), and 61 μg/mL (Compound B). 50 μL of the solutions were applied onto the wound surfaces.
Wounds were dressed with gauze and transparent dresser after drug administration. Photographs were taken for each wound every other day from Day 0. Photos were scanned into a computer, and wound areas calculated using ImageJ image analysis software (National Institutes of Health, […]).
The unhealed wound area was expressed as a percentage of the original wound area: […]
where A0 and At refer to the initial area at Day 0 and the wound area at the date of measurement (time t), respectively.

B1: rhEGF: Recombinant Human Epidermal Growth Factor, lyophilized powder dissolved in normal saline (protein, UniProt P01133 23-1207, looked up)
Pro-epidermal growth factor: PQHWSCPEGTLAGNGNSTCVGPAPFLIFSHGNSIFRIDTEGTNYEQLVVDAGVSVIMDFHYNEKRIYWVDLERQLLQRVFLNGSRQERVCNIEKNVSGMAINWINEEVIWSNQQEGIITVTDMKGNNSHILLSALKYPANVAVDPVERFIFWSSEVAGSLYRADLDGVGVKALLETSEKITAVSLDVLDKRLFWIQYNREGSNSLICSCDYDGGSVHISKHPTQHNLFAMSLFGDRIFYSTWKMKTIWIANKHTGKDMVRINLHSSFVPLGELKVVHPLAQPKAEDDTWEPEQKLCKLRKGNCSSTVCGQDLQSHLCMCAEGYALSRDRKYCEDVNECAFWNHGCTLGCKNTPGSYYCTCPVGFVLLPDGKRCHQLVSCPRNVSECSHDCVLTSEGPLCFCPEGSVLERDGKTCSGCSSPDNGGCSQLCVPLSPVSWECDCFPGYDLQLDEKSCAASGPQPFLLFANSQDIRHMHFDGTDYGTLLSQQMGMVYALDHDPVENKIYFAHTALKWIERANMDGSQRERLIEEGVDVPEGLAVDWIGRRFYWTDRGKSLIGRSDLNGKRSKIITKENISQPRGIAVHPMAKRLFWTDTGINPRIESSSLQGLGRLVIASSDLIWPSGITIDFLTDKLYWCDAKQSVIEMANLDGSKRRRLTQNDVGHPFAVAVFEDYVWFSDWAMPSVMRVNKRTGKDRVRLQGSMLKPSSLVVVHPLAKPGADPCLYQNGGCEHICKKRLGTAWCSCREGFMKASDGKTCLALDGHQLLAGGEVDLKNQVTPLDILSKTRVSEDNITESQHMLVAEIMVSDQDDCAPVGCSMYARCISEGEDATCQCLKGFAGDGKLCSDIDECEMGVPVCPPASSKCINTEGGYVCRCSEGYQGDGIHCLDIDECQLGEHSCGENASCTNTEGGYTCMCAGRLSEPGLICPDSTPPPHLREDDHHYSVRNSDSECPLSHDGYCLHDGVCMYIEALDKYACNCVVGYIGERCQYRDLKWWELRHAGHGQQQKVIVVAVCVVVLVMLLLLSLWGAHYYRTQKLLSKNPKNPYEESSRDVRSRRPADTEDGMSSCPQPWFVVIKEHQDLKNGGQPVAGEDGQAADGSMQPTSWRQEPQLCGMGTEQGCWIPVSSDKGSCPQVMERSFHMPSYGTQTLEGGVEKPHSLLSANPLWQQRALDPPHQMELTQ
modifications: Pro-epidermal growth factor
notes: Recombinant Human Epidermal Growth Factor, lyophilized powder dissolved in normal saline
With B1 the “wound Hyp content (Mean)” value ([1]; Day 4) was 1.808 µg/mg, the “TGF-β1 content (Mean)” value ([1]; Day 4) was 18190.6 pg/g and the “wound Hyp content (Mean)” value ([1]; Day 7) was 2.679 µg/mg. The “TGF-β1 content (Mean)” value ([1]; Day 7) was 15443.1 pg/g, the “ratio of remaining wound area of initial wound” value ([2]; Day 0, topical 50 μL/wound once daily, rhEGF 1285 IU/mouse, Compound A 3.09 μg/mouse, Compound B 3.05 μg/mouse) was 82.0 ± 2.2% and the “ratio of remaining wound area of initial wound” value ([2]; Day 1, topical once daily) was 100 ± 9.9%. For the same molecule, the “ratio of remaining wound area of initial wound” value ([2]; Day 2, topical once daily) was 94.1 ± 4.3%, the “ratio of remaining wound area of initial wound” value ([2]; Day 3, topical once daily) was 78.6 ± 7.3% and the “ratio of remaining wound area of initial wound” value ([2]; Day 4, topical once daily) was 61.5 ± 3.3%. The “ratio of remaining wound area of initial wound” value ([2]; Day 5, topical once daily) was 53.0 ± 1.0% and the “ratio of remaining wound area of initial wound” value ([2]; Day 6, topical once daily) was 47.2 ± 5.8%.
